Assay results as given in PMC9352680, “A comprehensive thermodynamic model for RNA binding by the Saccharomyces cerevisiae Pumilio protein PUF4”.

T1: PUF4 RNA-binding domain (Saccharomyces cerevisiae, UniProt P25339 537-888)
T1 sequence: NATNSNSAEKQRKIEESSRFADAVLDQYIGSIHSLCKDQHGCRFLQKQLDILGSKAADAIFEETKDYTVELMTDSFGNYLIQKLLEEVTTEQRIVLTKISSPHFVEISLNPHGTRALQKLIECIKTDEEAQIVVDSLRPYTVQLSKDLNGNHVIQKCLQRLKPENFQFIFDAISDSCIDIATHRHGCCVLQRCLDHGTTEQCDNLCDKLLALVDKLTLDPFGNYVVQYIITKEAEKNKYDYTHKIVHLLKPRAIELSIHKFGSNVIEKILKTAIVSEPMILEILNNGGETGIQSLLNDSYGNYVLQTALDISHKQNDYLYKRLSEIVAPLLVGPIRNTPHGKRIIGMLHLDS


Target: T1, PUF4 RNA-binding domain
Test: Mg; RNA-MaP; 20 mM Na-HEPES pH 7.4, 30 mM KOAc, 0.75 mM MgCl2, 0.1% Tween-20, 5% glycerol, 0.1 mg/mL BSA, 2 mM DTT; 25 C; 0.0125-409.6 nM protein
Conditions: tags: N-His6-TEV cleaved; C-SNAP kept, Cy3B-labelled; label: tethered on chip by stalled RNA polymerase

Row | Binder | Kd [nM]
1 | Ia_S4_P4E.1_K4.1_C4.1_H4.1_A4.1_[T5C]_F4.1_T4.1 (ssRNA) RNA: UUUGACAACUGAUCGUUCUUUCUUGUACAUUAUUCUUUCUCGAUCAGUUGUCUUU | 0.303
2 | Ia_S4_P4E.1_K4.1_C4.1_H4.1_A4.1_[A6T]_F4.1_T4.1 (ssRNA) RNA: UUUGACAACUGAUCGUUCUUUCUUGUAUUUUAUUCUUUCUCGAUCAGUUGUCUUU | 1.24
3 | Ia_S4_P4E.1_K4.1_C4.1_H4.1_A4.1_[A6C]_F4.1_T4.1 (ssRNA) RNA: UUUGACAACUGAUCGUUCUUUCUUGUAUCUUAUUCUUUCUCGAUCAGUUGUCUUU | 2.17
4 | Ic_S4_P4E.1_K4.1_C4.1_H4.1_A4.1_[T5A]_F4.1_T4.1 (ssRNA) RNA: UUUGACAACUGAUCGUUCUUUCUUGUAAAUUAUUCUUUCUCGAUCAGUUGUCUUU | 1.69
5 | Ic_S4_P5E.1_K5.1_C5.1_H5.1_A5.1_[T5C]_F5.1_[T8C]_T5.1 (ssRNA) RNA: UUUGACAACUGAUCGUUCUUUCUUGUACUACUAUUCUUUCUCGAUCAGUUGUCUUU | 3.13
6 | Ib_S4_P5E.1_K5.1_C5.1_H5.1_A5.1_[A7T]_F5.1_[T8C]_T5.1 (ssRNA) RNA: UUUGACAACUGAUCGUUCUUUCUUGUAUUUCUAUUCUUUCUCGAUCAGUUGUCUUU | 3.12
7 | Ib_S4_P5E.1_K5.1_C5.1_H5.1_[T1C]_A5.1_[T6A]_F5.1_T5.1 (ssRNA) RNA: UUUGACAACUGAUCGUUCUUUCUCGUAUAAUUAUUCUUUCUCGAUCAGUUGUCUUU | 1040
8 | Ic_S4_P5E.1_K5.1_C5.1_H5.1_A5.1_[A7C]_F5.1_[A10T]_T5.1 (ssRNA) RNA: UUUGACAACUGAUCGUUCUUUCUUGUAUUCUUUUUCUUUCUCGAUCAGUUGUCUUU | 13.8
9 | Ib_S4_P5E.1_K5.1_C5.1_H5.1_[T1C]_[A4T]_A5.1_F5.1_T5.1 (ssRNA) RNA: UUUGACAACUGAUCGUUCUUUCUCGUUUUAUUAUUCUUUCUCGAUCAGUUGUCUUU | 1050
10 | Ib_S4_P5E.1_K5.1_C5.1_H5.1_A5.1_[T5A]_F5.1_[T8A]_T5.1 (ssRNA) RNA: UUUGACAACUGAUCGUUCUUUCUUGUAAUAAUAUUCUUUCUCGAUCAGUUGUCUUU | 13.8
11 | Ic_S4_P5E.1_K5.1_C5.1_H5.1_A5.1_[T6C]_F5.1_[T9A]_T5.1 (ssRNA) RNA: UUUGACAACUGAUCGUUCUUUCUUGUAUCAUAAUUCUUUCUCGAUCAGUUGUCUUU | 1.47
12 | Ib_S4_P5E.1_K5.1_C5.1_H5.1_A5.1_[T6A]_F5.1_[T8A]_T5.1 (ssRNA) RNA: UUUGACAACUGAUCGUUCUUUCUUGUAUAAAUAUUCUUUCUCGAUCAGUUGUCUUU | 9.5
13 | Ib_S4_P5E.1_K5.1_C5.1_H5.1_A5.1_[A7T]_F5.1_[T9C]_T5.1 (ssRNA) RNA: UUUGACAACUGAUCGUUCUUUCUUGUAUUUUCAUUCUUUCUCGAUCAGUUGUCUUU | 69.4
14 | Ib_S4_P5E.1_K5.1_C5.1_H5.1_[T3C]_[A4C]_A5.1_F5.1_T5.1 (ssRNA) RNA: UUUGACAACUGAUCGUUCUUUCUUGCCUUAUUAUUCUUUCUCGAUCAGUUGUCUUU | 862
15 | Ib_S4_P5E.1_K5.1_C5.1_H5.1_[T3G]_[A4T]_A5.1_F5.1_T5.1 (ssRNA) RNA: UUUGACAACUGAUCGUUCUUUCUUGGUUUAUUAUUCUUUCUCGAUCAGUUGUCUUU | 745
16 | Ib_S4_P5E.1_K5.1_C5.1_H5.1_A5.1_[A7C]_F5.1_[T8G]_T5.1 (ssRNA) RNA: UUUGACAACUGAUCGUUCUUUCUUGUAUUCGUAUUCUUUCUCGAUCAGUUGUCUUU | 10.4
17 | Ib_S4_P5E.1_K5.1_C5.1_H5.1_[G2A]_[T3A]_A5.1_F5.1_T5.1 (ssRNA) RNA: UUUGACAACUGAUCGUUCUUUCUUAAAUUAUUAUUCUUUCUCGAUCAGUUGUCUUU | 2140
18 | Ib_S4_P5E.1_K5.1_C5.1_H5.1_[G2A]_[A4T]_A5.1_F5.1_T5.1 (ssRNA) RNA: UUUGACAACUGAUCGUUCUUUCUUAUUUUAUUAUUCUUUCUCGAUCAGUUGUCUUU | 1440
19 | Ib_S4_P5E.1_K5.1_C5.1_H5.1_[T1C]_A5.1_[A7G]_F5.1_T5.1 (ssRNA) RNA: UUUGACAACUGAUCGUUCUUUCUCGUAUUGUUAUUCUUUCUCGAUCAGUUGUCUUU | 2200
20 | Ib_S4_P5E.1_K5.1_C5.1_H5.1_A5.1_[A7G]_F5.1_[T8C]_T5.1 (ssRNA) RNA: UUUGACAACUGAUCGUUCUUUCUUGUAUUGCUAUUCUUUCUCGAUCAGUUGUCUUU | 14.9
21 | Ib_S4_P5E.1_K5.1_C5.1_H5.1_[G2C]_[A4T]_A5.1_F5.1_T5.1 (ssRNA) RNA: UUUGACAACUGAUCGUUCUUUCUUCUUUUAUUAUUCUUUCUCGAUCAGUUGUCUUU | > 2300
22 | Ib_S4_P5E.1_K5.1_C5.1_H5.1_A5.1_[T5G]_F5.1_[A10G]_T5.1 (ssRNA) RNA: UUUGACAACUGAUCGUUCUUUCUUGUAGUAUUGUUCUUUCUCGAUCAGUUGUCUUU | 109
23 | Ib_S4_P5E.1_K5.1_C5.1_H5.1_[T1C]_A5.1_[T5G]_F5.1_T5.1 (ssRNA) RNA: UUUGACAACUGAUCGUUCUUUCUCGUAGUAUUAUUCUUUCUCGAUCAGUUGUCUUU | > 2300
24 | Ib_S4_P5E.1_K5.1_C5.1_H5.1_A5.1_[T5A]_F5.1_[A10C]_T5.1 (ssRNA) RNA: UUUGACAACUGAUCGUUCUUUCUUGUAAUAUUCUUCUUUCUCGAUCAGUUGUCUUU | 29.4

Row | Binder | Kd [nM]
25 | Ib_S4_P5E.1_K5.1_C5.1_H5.1_[G2T]_[A4G]_A5.1_F5.1_T5.1 (ssRNA) RNA: UUUGACAACUGAUCGUUCUUUCUUUUGUUAUUAUUCUUUCUCGAUCAGUUGUCUUU | 492
26 | Ib_S4_P5E.1_K5.1_C5.1_H5.1_A5.1_[T5G]_F5.1_[T9A]_T5.1 (ssRNA) RNA: UUUGACAACUGAUCGUUCUUUCUUGUAGUAUAAUUCUUUCUCGAUCAGUUGUCUUU | 7.64
27 | Ib_S4_P5E.1_K5.1_C5.1_H5.1_[T1G]_[A4C]_A5.1_F5.1_T5.1 (ssRNA) RNA: UUUGACAACUGAUCGUUCUUUCUGGUCUUAUUAUUCUUUCUCGAUCAGUUGUCUUU | > 2300
28 | Ib_S4_P5E.1_K5.1_C5.1_H5.1_[T3G]_[A4C]_A5.1_F5.1_T5.1 (ssRNA) RNA: UUUGACAACUGAUCGUUCUUUCUUGGCUUAUUAUUCUUUCUCGAUCAGUUGUCUUU | 1880
29 | Ib_S4_P5E.1_K5.1_C5.1_H5.1_A5.1_[T6C]_F5.1_[A10T]_T5.1 (ssRNA) RNA: UUUGACAACUGAUCGUUCUUUCUUGUAUCAUUUUUCUUUCUCGAUCAGUUGUCUUU | 7.7
30 | Ib_S4_P5E.1_K5.1_C5.1_H5.1_A5.1_[T6A]_F5.1_[T8C]_T5.1 (ssRNA) RNA: UUUGACAACUGAUCGUUCUUUCUUGUAUAACUAUUCUUUCUCGAUCAGUUGUCUUU | 5.07
31 | Ib_S4_P5E.1_K5.1_C5.1_H5.1_[T1A]_A5.1_[T6C]_F5.1_T5.1 (ssRNA) RNA: UUUGACAACUGAUCGUUCUUUCUAGUAUCAUUAUUCUUUCUCGAUCAGUUGUCUUU | > 2300
32 | Ib_S4_P5E.1_K5.1_C5.1_H5.1_A5.1_[T5C]_F5.1_[T9C]_T5.1 (ssRNA) RNA: UUUGACAACUGAUCGUUCUUUCUUGUACUAUCAUUCUUUCUCGAUCAGUUGUCUUU | 27.6
33 | Ib_S4_P5E.1_K5.1_C5.1_H5.1_[T1C]_A5.1_[A7T]_F5.1_T5.1 (ssRNA) RNA: UUUGACAACUGAUCGUUCUUUCUCGUAUUUUUAUUCUUUCUCGAUCAGUUGUCUUU | 370
34 | Ib_S4_P5E.1_K5.1_C5.1_H5.1_[T1A]_[T3C]_A5.1_F5.1_T5.1 (ssRNA) RNA: UUUGACAACUGAUCGUUCUUUCUAGCAUUAUUAUUCUUUCUCGAUCAGUUGUCUUU | > 2300
35 | Ib_S4_P5E.1_K5.1_C5.1_H5.1_A5.1_[A7T]_F5.1_[T8G]_T5.1 (ssRNA) RNA: UUUGACAACUGAUCGUUCUUUCUUGUAUUUGUAUUCUUUCUCGAUCAGUUGUCUUU | 3.74
36 | Ib_S4_P5E.1_K5.1_C5.1_H5.1_[T3C]_[A4T]_A5.1_F5.1_T5.1 (ssRNA) RNA: UUUGACAACUGAUCGUUCUUUCUUGCUUUAUUAUUCUUUCUCGAUCAGUUGUCUUU | 453
37 | Ib_S4_P5E.1_K5.1_C5.1_H5.1_[T1C]_[G2T]_A5.1_F5.1_T5.1 (ssRNA) RNA: UUUGACAACUGAUCGUUCUUUCUCUUAUUAUUAUUCUUUCUCGAUCAGUUGUCUUU | > 2300
38 | Ib_S4_P5E.1_K5.1_C5.1_H5.1_A5.1_[A7C]_F5.1_[T9C]_T5.1 (ssRNA) RNA: UUUGACAACUGAUCGUUCUUUCUUGUAUUCUCAUUCUUUCUCGAUCAGUUGUCUUU | 56
39 | Ib_S4_P5E.1_K5.1_C5.1_H5.1_A5.1_[T5C]_F5.1_[A10T]_T5.1 (ssRNA) RNA: UUUGACAACUGAUCGUUCUUUCUUGUACUAUUUUUCUUUCUCGAUCAGUUGUCUUU | 4.98
40 | Ib_S4_P5E.1_K5.1_C5.1_H5.1_A5.1_[A7G]_F5.1_[A10G]_T5.1 (ssRNA) RNA: UUUGACAACUGAUCGUUCUUUCUUGUAUUGUUGUUCUUUCUCGAUCAGUUGUCUUU | 52.3
41 | Ib_S4_P5E.1_K5.1_C5.1_H5.1_A5.1_[A7T]_F5.1_[A10T]_T5.1 (ssRNA) RNA: UUUGACAACUGAUCGUUCUUUCUUGUAUUUUUUUUCUUUCUCGAUCAGUUGUCUUU | 10.7
42 | Ib_S4_P5E.1_K5.1_C5.1_H5.1_[T1C]_A5.1_[T6C]_F5.1_T5.1 (ssRNA) RNA: UUUGACAACUGAUCGUUCUUUCUCGUAUCAUUAUUCUUUCUCGAUCAGUUGUCUUU | 637
43 | Ib_S4_P5E.1_K5.1_C5.1_H5.1_[T1A]_[A4G]_A5.1_F5.1_T5.1 (ssRNA) RNA: UUUGACAACUGAUCGUUCUUUCUAGUGUUAUUAUUCUUUCUCGAUCAGUUGUCUUU | 1260
44 | Ib_S4_P5E.1_K5.1_C5.1_H5.1_A5.1_[A7G]_F5.1_[T9C]_T5.1 (ssRNA) RNA: UUUGACAACUGAUCGUUCUUUCUUGUAUUGUCAUUCUUUCUCGAUCAGUUGUCUUU | 393
45 | Ib_S4_P5E.1_K5.1_C5.1_H5.1_[G2C]_[A4G]_A5.1_F5.1_T5.1 (ssRNA) RNA: UUUGACAACUGAUCGUUCUUUCUUCUGUUAUUAUUCUUUCUCGAUCAGUUGUCUUU | 455
46 | Ib_S4_P5E.1_K5.1_C5.1_H5.1_A5.1_[A7T]_F5.1_[A10G]_T5.1 (ssRNA) RNA: UUUGACAACUGAUCGUUCUUUCUUGUAUUUUUGUUCUUUCUCGAUCAGUUGUCUUU | 9.13
47 | Ib_S4_P5E.1_K5.1_C5.1_H5.1_[T1C]_[T3C]_A5.1_F5.1_T5.1 (ssRNA) RNA: UUUGACAACUGAUCGUUCUUUCUCGCAUUAUUAUUCUUUCUCGAUCAGUUGUCUUU | > 2300
48 | Ib_S4_P5E.1_K5.1_C5.1_H5.1_[T1C]_[G2A]_A5.1_F5.1_T5.1 (ssRNA) RNA: UUUGACAACUGAUCGUUCUUUCUCAUAUUAUUAUUCUUUCUCGAUCAGUUGUCUUU | 1660
